Laboratory results reported in US20200197495A1.

Assays:
Assay in all cases: cell-based or functional assay
[1] = target: Helixate (rec. FVIII from CSL Behring) (UniProt P00451)
[2] = target: CSL627 (recombinant B-Domain-deleted single chain FVIII, rVIII-SingleChain) (Homo sapiens (Human)) (UniProt P00451)
[3] = target: ReFacto (rec. FVIII from Pfizer) (UniProt P00451)
[4] = target: Advate (rec. FVIII from Shire) (UniProt P00451)

Substance	IC50, inhibition of factor VIII uptake in MDDCs [1] [nM]	IC50, inhibition of factor VIII uptake in MDDCs [2] [nM]	reduction of CSL627 antigen presentation, HLA-DQB1 restricted peptide clusters [2] [fold]	reduction of CSL627 antigen presentation, peptide clusters (printed HLA-DQB1 a second time) [2] [fold]	reduction of CSL627 antigen presentation, unique HLA-DPB1 bound peptides [2] [fold]	reduction of CSL627 antigen presentation, unique HLA-DQB1 bound peptides [2] [fold]	IC50, inhibition of factor VIII uptake in MDDCs [3] [nM]	IC50, inhibition of factor VIII uptake in MDDCs [4] [nM]
plasma-derived von Willebrand Factor (pdVWF; BIOSTATE, human plasma derived VWF from CSL Behring) (from UniProt P04275 23-2813)	823	744	10	3.5	14.2	21.7	963	–
CSL650 (rec. VWF-albumin fusion from CSL Behring)	552	750	–	–	–	–	778	769
CSL626 (truncated VWF (764-1242)-albumin fusion, dimer)	1690	1720	–	–	–	–	1570	2230
